The values that follow come from the supplement of paper PMC5998384.

For data set [1], the system named is HeLa Kyoto. Briefly: thermal stability score vs G1/S (z-score of summed log2 fold changes over temperatures); higher = more thermally stable than in G1/S.
The subject of data set [2] is HeLa Kyoto. Nature of the data set: melting temperature (median over replicates), in situ; higher = more thermally stable.
Data set [3] has as its system HeLa Kyoto. Briefly: solubility in G1/S (NP-40 vs SDS abundance) (log2 ratio); higher = more soluble. The settings on record: cell cycle stage: G1/S.
For data set [4], the system named is HeLa Kyoto. Briefly: solubility change mitosis vs G1/S (difference of NP-40 vs SDS log2 ratios) (log2 ratio difference); higher = more soluble in mitosis.
Setting [5] is: cell cycle stage: early G1 (4.5 h after nocodazole release).
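Wherever melting temperature (median over replicates), in situ is given: HeLa Kyoto cells synchronized by double thymidine or nocodazole block, proteins quantified by TMT10plex mass spectrometry, three independent biological replicates.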
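Wherever solubility change mitosis vs G1/S (difference of NP-40 vs SDS log2 ratios) is given: synchronized HeLa Kyoto cells (double thymidine block for G1/S, nocodazole release for mitosis), protein amounts in NP-40 versus SDS lysates quantified by mass spectrometry, three biological replicates.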
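Wherever solubility in G1/S (NP-40 vs SDS abundance) is given: HeLa Kyoto cells arrested at G1/S by double thymidine block, proteins quantified by TMT10plex mass spectrometry in mild NP-40 versus SDS extracts, three biological replicates.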
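Wherever thermal stability score vs G1/S (z-score of summed log2 fold changes over temperatures) is given: synchronized HeLa Kyoto cells, proteins quantified by TMT10plex mass spectrometry, three biological replicates, mitosis taken 0.5 h after nocodazole release, G1/S directly after double thymidine block.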

With “MALLCYNRGCGQRFDPETNSDDACTYHPGVPVFHDALKGWSCCKRRTTDFSDFLSIVGCTKGRHNSEKPPEPVKPEVKTTEKKELCELKPKFQEHIIQAPKPVEAIKRPSPDEPMTNLELKISASLKQALDKLKLSSGNEENKKEEDNDEIKIGTSCKNGGCSKTYQGLESLEEVCVYHSGVPIFHEGMKYWSCCRRKTSDFNTFLAQEGCTKGKHMWTKKDAGKKVVPCRHDWHQTGGEVTISVYAKNSLPELSRVEANSTLLNVHIVFEGEKEFDQNVKLWGVIDVKRSYVTMTATKIEITMRKAEPMQWASLELPAAKKQEKQKDATTD [CHORDC1]”, the thermal stability score in the data set on HeLa Kyoto [1] (setting [5]) was -0.00128; in the data set on HeLa Kyoto [1] (cell cycle stage: mitosis), 0.22. Further, the melting temperature in the data set with HeLa Kyoto [2] (cell cycle stage: G1/S) stood at 52 °C; in the data set with HeLa Kyoto [2] (cell cycle stage: mitosis) it was 52.4 °C. The “solubility in G1/S (log2)” value with HeLa Kyoto [3] worked out at 0.0558. Besides, the “solubility change mitosis (log2)” value with HeLa Kyoto [4] was -0.122.
On to DNAJA2, for which the thermal stability score with HeLa Kyoto [1] (setting [5]) is -0.554; in the data set on HeLa Kyoto [1] (cell cycle stage: mitosis), -2.34. The melting temperature in the data set on HeLa Kyoto [2] (cell cycle stage: G1/S) and in the data set on HeLa Kyoto [2] (cell cycle stage: mitosis) was 51.7 °C each time. For the same substance, the “solubility in G1/S (log2)” value in the data set with HeLa Kyoto [3] worked out at 0.258. In the data set with HeLa Kyoto [4], the “solubility change mitosis (log2)” value is -0.191.
In the case of “MGKGDPNKPRGKMSSYAFFVQTCREEHKKKHPDSSVNFAEFSKKCSERWKTMSAKEKSKFEDMAKSDKARYDREMKNYVPPKGDKKGKKKDPNAPKRPPSAFFLFCSEHRPKIKSEHPGLSIGDTAKKLGEMWSEQSAKDKQPYEQKAAKLKEKYEKDIAAYRAKGKSEAGKKGPGRPTGSKKKNEPEDEEEEEEEEDEDEEEEDEDEE [HMGB2]”, the thermal stability score with HeLa Kyoto [1] (setting [5]) is 0.292; with HeLa Kyoto [1] (cell cycle stage: mitosis), -0.27. Also, the melting temperature in the data set on HeLa Kyoto [2] (cell cycle stage: G1/S) was 58.1 °C; in the data set with HeLa Kyoto [2] (cell cycle stage: mitosis) it was 56.7 °C. Further, in the data set on HeLa Kyoto [3], the “solubility in G1/S (log2)” value was 0.485. Further, the “solubility change mitosis (log2)” value in the data set on HeLa Kyoto [4] is 0.338.
On to “MAVARAALGPLVTGLYDVQAFKFGDFVLKSGLSSPIYIDLRGIVSRPRLLSQVADILFQTAQNAGISFDTVCGVPYTALPLATVICSTNQIPMLIRRKETKDYGTKRLVEGTINPGETCLIIEDVVTSGSSVLETVEVLQKEGLKVTDAIVLLDREQGGKDKLQAHGIRLHSVCTLSKMLEILEQQKKVDAETVGRVKRFIQENVFVAANHNGSPLSIKEAPKELSFGARAELPRIHPVASKLLRLMQKKETNLCLSADVSLARELLQLADALGPSICMLKTHVDILNDFTLDVMKELITLAKCHEFLIFEDRKFADIGNTVKKQYEGGIFKIASWADLVNAHVVPGSGVVKGLQEVGLPLHRGCLLIAEMSSTGSLATGDYTRAAVRMAEEHSEFVVGFISGSRVSMKPEFLHLTPGVQLEAGGDNLGQQYNSPQEVIGKRGSDIIIVGRGIISAADRLEAAEMYRKAAWEAYLSRLGV [UMPS]”, for which the thermal stability score in the data set with HeLa Kyoto [1] (setting [5]) is -0.259; in the data set on HeLa Kyoto [1] (cell cycle stage: mitosis) it was -1.37. The values for the melting temperature in the data set on HeLa Kyoto [2] (cell cycle stage: G1/S) and in the data set with HeLa Kyoto [2] (cell cycle stage: mitosis) were 53.9 °C and 53 °C, respectively. In addition, the “solubility in G1/S (log2)” value in the data set with HeLa Kyoto [3] was 0.169. In the data set on HeLa Kyoto [4], the “solubility change mitosis (log2)” value was -0.08.
Take “MEETMKLATMEDTVEYCLFLIPDESRDSDKHKEILQKYIERIITRFAPMLVPYIWQNQPFNLKYKPGKGGVPAHMFGVTKFGDNIEDEWFIVYVIKQITKEFPELVARIEDNDGEFLLIEAADFLPKWLDPENSTNRVFFCHGELCIIPAPRKSGAESWLPTTPPTIPQALNIITAHSEKILASESIRAAVNRRIRGYPEKIQASLHRAHCFLPAGIVAVLKQRPRLVAAAVQAFYLRDPIDLRACRVFKTFLPETRIMTSVTFTKCLYAQLVQQRFVPDRRSGYRLPPPSDPQYRAHELGMKLAHGFEILCSKCSPHFSDCKKSLVTASPLWASFLESLKKNDYFKGLIEGSAQYRERLEMAENYFQLSVDWPESSLAMSPGEEILTLLQTIPFDIEDLKKEAANLPPEDDDQWLDLSPDQLDQLLQEAVGKKESESVSKEEKEQNYDLTEVSESMKAFISKVSTHKGAELPREPSEAPITFDADSFLNYFDKILGPRPNESDSDDLDDEDFECLDSDDDLDFETHEPGEEASLKGTLDNLKSYMAQMDQELAHTCISKSFTTRNQVEPVSQTTDNNSDEEDSGTGESVMAPVDVDLNLVSNILESYSSQAGLAGPASNLLQSMGVQLPDNTDHRPTSKPTKN [ECD]”: the thermal stability score with HeLa Kyoto [1] (setting [5]) is 0.346; in the data set with HeLa Kyoto [1] (cell cycle stage: mitosis) it was 0.595. The melting temperature came to 50.8 °C with HeLa Kyoto [2] (cell cycle stage: G1/S) and 50 °C with HeLa Kyoto [2] (cell cycle stage: mitosis). The “solubility in G1/S (log2)” value in the data set with HeLa Kyoto [3] was determined as 0.116. Besides, the “solubility change mitosis (log2)” value in the data set on HeLa Kyoto [4] was -0.113.
On to “MLGLLVALLALGLAVFALLDVWYLVRLPCAVLRARLLQPRVRDLLAEQRFPGRVLPSDLDLLLHMNNARYLREADFARVAHLTRCGVLGALRELRAHTVLAASCARHRRSLRLLEPFEVRTRLLGWDDRAFYLEARFVSLRDGFVCALLRFRQHLLGTSPERVVQHLCQRRVEPPELPADLQHWISYNEASSQLLRMESGLSDVTKDQ [THEM6]”, for which the values for the thermal stability score in the data set on HeLa Kyoto [1] (setting [5]) and with HeLa Kyoto [1] (cell cycle stage: mitosis) were -1.92 and -2.82, respectively. Also, the melting temperature turned out to be 55.3 °C in the data set with HeLa Kyoto [2] (cell cycle stage: G1/S) and 53.8 °C with HeLa Kyoto [2] (cell cycle stage: mitosis). Moreover, the “solubility in G1/S (log2)” value in the data set on HeLa Kyoto [3] is -0.64. For the same substance, in the data set with HeLa Kyoto [4], the “solubility change mitosis (log2)” value is -0.052.
As to “MMSQSSGSGDGNDDEATTSKDGGFSSPSPSAAAAAQEVRSATDGNTSTTPPTSAKKRKLNSSSSSSSNSSNEREDFDSTSSSSSTPPLQPRDSASPSTSSFCLGVSVAASSHVPIQKKLRFEDTLEFVGFDAKMAEESSSSSSSSSPTAATSQQQQLKNKSILISSVASVHHANGLAKSSTTVSSFANSKPGSAKKLVIKNFKDKPKLPENYTDETWQKLKEAVEAIQNSTSIKYNLEELYQAVENLCSYKISANLYKQLRQICEDHIKAQIHQFREDSLDSVLFLKKIDRCWQNHCRQMIMIRSIFLFLDRTYVLQNSMLPSIWDMGLELFRAHIISDQKVQNKTIDGILLLIERERNGEAIDRSLLRSLLSMLSDLQIYQDSFEQRFLEETNRLYAAEGQKLMQEREVPEYLHHVNKRLEEEADRLITYLDQTTQKSLIATVEKQLLGEHLTAILQKGLNNLLDENRIQDLSLLYQLFSRVRGGVQVLLQQWIEYIKAFGSTIVINPEKDKTMVQELLDFKDKVDHIIDICFLKNEKFINAMKEAFETFINKRPNKPAELIAKYVDSKLRAGNKEATDEELEKMLDKIMIIFRFIYGKDVFEAFYKKDLAKRLLVGKSASVDAEKSMLSKLKHECGAAFTSKLEGMFKDMELSKDIMIQFKQYMQNQNVPGNIELTVNILTMGYWPTYVPMEVHLPPEMVKLQEIFKTFYLGKHSGRKLQWQSTLGHCVLKAEFKEGKKELQVSLFQTLVLLMFNEGEEFSLEEIKQATGIEDGELRRTLQSLACGKARVLAKNPKGKDIEDGDKFICNDDFKHKLFRIKINQIQMKETVEEQASTTERVFQDRQYQIDAAIVRIMKMRKTLSHNLLVSEVYNQLKFPVKPADLKKRIESLIDRDYMERDKENPNQYNYIA [CUL4B]”, the thermal stability score in the data set with HeLa Kyoto [1] (setting [5]) was -1.29; in the data set with HeLa Kyoto [1] (cell cycle stage: mitosis) it was -1.57. The figures for the melting temperature in the data set on HeLa Kyoto [2] (cell cycle stage: G1/S) and in the data set on HeLa Kyoto [2] (cell cycle stage: mitosis) were 54.6 °C and 54.4 °C, respectively. Moreover, the “solubility in G1/S (log2)” value in the data set on HeLa Kyoto [3] is 0.0519. For the same substance, the “solubility change mitosis (log2)” value with HeLa Kyoto [4] was -0.261.
